Drawing on patent US12577311 (dated 2026), this text covers EC50 and Kd for 14 molecules.

Test [1] has as its target T1, PE labeled CAIX protein (UniProt Q16790 38-414). Put plainly: FACS binding.
The target of test [2] is T1, PE labeled CAIX protein. Put plainly: FACS binding. This is another data set of the same source.
Test [3] has as its target T2, CAIX (UniProt Q16790 38-414).
In test [4] the target is T2, CAIX. The source holds these as a separate data set.
Test [5] has as its target T2, CAIX. This is another data set of the same source.

Read-outs that look alike come from different tables or passages of the source.

B1: anti-CAIX (G36) CAR (scFv, V domains shown)
VH: EVQLVQSGGGVVQPGGSLRLSCAASGFPFSSYAMSWVRQAPGKGLEWVSAISANGGTTYYADSVKGRFTISRDNSKNTLYLQMNSLRAEDTAVYYCANNGNYRGAFDIWGQGTMVTVSS
VL: QSVLTQPPSVSGAPGQRVTISCTGSSSNIGAGFDVHWYQQLPGTAPKLLIYGNTNRPSGVPDRFSGSKSGTSASLAITGLQAEDETDYYCQSYDSRLSAWVFGGGTKLTVLG
As for B1, the 50% effective concentration (EC50) in test [1] and in test [2] was 0.132 µg/mL throughout.

B2: G40 (antibody, V domains shown)
VH: QVQLVQSGGGLVQPGGSLRLSCAASGFTFSSYAMSWVRQAPGKGLEWVSAISGSGGSTYYADSVKGRFTISRDNSKNTLYLQMNSLRAEDTAVYYCATYGDYGSLDYWGQGTLVTVSS
VL: QSVLTQPPSVSGAPGQRVTISCTGSSSNIGAGYDVHWYQQLPGTAPKLLIYANNNRPSGVPDRFSGSKSGTSASLAITGLQAEDEADYYCQSYDSSLRAWVFGGGTKLAVLG
On to B2, for which the Kd in test [3], in test [4] and in test [5] was 21.8 nM in each case.

B3: G45 (antibody, V domains shown)
VH: QVQLVQSGGGLVRPGGSLRLSCAASGFPFSSYAMSWVRQAPGKGLEWVSAISANGGTTYYADSVKGRFTISRDNSKNTLYLQMNSLRAEDTAVYYCANNGNYRGAFDIWGQGTTVTVSS
VL: QSVLTQPPSVSGAPGQRITISCTGSSSNIGAGYDVHWYQQVPGKAPKVVIYGNNNRPSGVPDRFSGSKSGASASLAITGLQTEDEADYYCQSYDKSLTWVFGGGTKVTVLG
For B3, the Kd in test [3], in test [4] and in test [5] was 12.5 nM in each case.

B4: G10 (antibody, V domains shown)
VH: QVQLVQSGGGLVQPGGSLRLSCAASGFPFSSYAMSWVRQAPGKGLEWVSAISANGGTTYYADSVKGRFTISRDNSKNTLYLQMNSLRAEDTAVYYCANNGNYRGAFDIWGQGTMVTVSS
VL: QSVLTQPPSVSGAPGQRVTISCTGSSSNIGAGYDVHWYQQLPGTAPKLLIYGNSNRPSGVPDRFSGSKSGSSASLAITGLQAEDEAHYYCQSYDRSLSWVFGGGTKLTVLG
With B4, the Kd in test [3], in test [4] and in test [5] was 1.62 nM each time.

B5: G119 (antibody, V domains shown)
VH: QVQLVQSGGGLVQPGGSLRLSCAASGFPFSSYAMSWVRQAPGKGLEWVSAISANGGTTYYADSVKGRFTISRDNSKNTLYLQMNSLRAEDTAVYYCANNGNYRGAFDIWGQGTMVIVSS
VL: QSVLTQPPSVSGAPGQRVTISCTGSSSNIGAGYDVHWYQQLPGTAPKLLIYGNTNRPSGVPDRFSGSKSGTSASLAIIGLQADDEADYYCQSYDSTLRVWMFGGGTKLTVLG
Take B5: the Kd in test [3], in test [4] and in test [5] was 1.49 nM each time.

B6: G36 (antibody, V domains shown)
VH: EVQLVQSGGGVVQPGGSLRLSCAASGFPFSSYAMSWVRQAPGKGLEWVSAISANGGTTYYADSVKGRFTISRDNSKNTLYLQMNSLRAEDTAVYYCANNGNYRGAFDIWGQGTMVTVSS
VL: QSVLTQPPSVSGAPGQRVTISCTGSSSNIGAGFDVHWYQQLPGTAPKLLIYGNTNRPSGVPDRFSGSKSGTSASLAITGLQAEDETDYYCQSYDSRLSAWVFGGGTKLTVLG
In the case of B6, the equilibrium dissociation constant (Kd) in test [3], in test [4] and in test [5] was 3.22 nM throughout.

B7: G9 (antibody, V domains shown)
VH: QVQLQESGGGLVQPGGSLRLSCAASGFTFSSYAMSWVRQAPGKGLEWVSAISGSGGSTYYADSVKGRFTISRDNSKNTLYLQMNSLRAEDTAVYYCARSHSSGGFDYWGQGTLVTVSS
VL: QSVLTQPPSVSGAPGQRVTISCTGSSSNIGRGYNVHWYQQLPGTAPKLLIYGNTNRPSGVPDRFSGSKSGTSASLAITGLQAEDEGDYYCQSYDSSLSAWVFGGGTKLTVLG
Regarding B7, the equilibrium dissociation constant (Kd) in test [3], in test [4] and in test [5] was 99.6 nM in each case.

B8: G37 (antibody, V domains shown)
VH: QVQLVQSGGGVVQPGGSLRLSCAASGFPFSSYAMSWVRQAPGKGLEWVSAISANGGTTYYADSVKGRFTISRDNSKNTLYLQMNSLRAEDTAVYYCANNGNYRGAFDIWGQGTMVTVSS
VL: QSVLTQPPSVSGAPGQRITISCTGSRSNIGADYDVHWYQQLPGTAPKLLIYANNNRPSGVPDRFSGSKSGTSASLAITGLQAEDETDYFCQSYDSSLSAWVFGGGTKVTVLG
As for B8, the Kd in test [3], in test [4] and in test [5] was 1.89 nM throughout.

B9: G106 (antibody, V domains shown)
VH: EVQLVQSGGGLVQPGGSLRLSCAASGFTFSSYAMSWVRQAPGKGLEWVSAISANGGTTYYADSVKGRFTISRDNSKNTLYLQMNSLRAEDTAVYYCANNGNYRGAFDIWGQGTTVTVSS
VL: QSVLTQPPSVSGAPGQRVTISCTGSSSNIGAGFDVHWYQQLPGTAPRLLIYGNNNRPSGVPDRFSGSKSGTSASLAITGLQAEDETDYFCQSYDSSLSAWVFGGGTKVTVLR
Regarding B9, the dissociation constant (Kd) in test [3], in test [4] and in test [5] was 3.2 nM each time.

B10: G57 (antibody, V domains shown)
VH: QVQLVQSGGGVVQPGRSLRLSCAASGFTFSSYGMHWVRQAPGKGLEWVAVISYDGSNKYYADSVKGRFTISRDNSKNTLYLQMNSLRAEDTAVYYCAREAPYSSSLDAFDIWGQGTMVTVSS
VL: QSVLTQPPSVSGAPGQRVTISCTGSSSNIGRGYNVHWYQQLPGTAPKLLIYGNSNRPSGVPDRFSGSSSGNTASLTITGAQAEDEADYYCHSRDNNGHHIFGGGTKLTVLS
Turning to B10, the Kd in test [3], in test [4] and in test [5] was 4.25 nM in each case.

B11: G6 (antibody, V domains shown)
VH: QVQLVQSGGGLVQPGGSLRLSCAASEFTFGTYAMTWVRQAPGKGLEWVSAVSGSGGSTYYADSVKGRFTISRDNSRNTLYLQMNSLRADDTAVYYCARGPVLRYGFDIWGQGTMVIVSS
VL: QSVLTQPPSVSGAPGQRITISCTGSRSNIGADYDVHWYQQLPGTAPKLLIYANNNRPSGVPGRFSASKSGTSASLAISGLQAEDEADYYCQSYDSSLRAWVFGGGTKLAVLG
For the molecule B11, the equilibrium dissociation constant (Kd) in test [3], in test [4] and in test [5] was 25.9 nM throughout.

B12: G125 (antibody, V domains shown)
VH: EVQLVESGGGVVQPGRSLRLSCAASGFTFSSYGMHWVRQAPGKGLEWVSAISGSGGSTYYADSVKGRFTISRDNAKNTLYLQMNSLRAEDTAVYYCARAAVTGGFDPWGQGTLVTVSS
VL: QPGLTQPPSVSVAPGQTARITCGGDNIGRKSVHWYQQRPGQAPILVIRDDRDRPSGIPERFSGSSSVNTATLIISRVEAGDEADYYCQVWDSSSKHYVFGPGTKVTALG
Take B12: the dissociation constant Kd in test [3], in test [4] and in test [5] was 40.3 nM in each case.

B13: G39 (antibody, V domains shown)
VH: not shown
VL: QSVLTQPPSVSGAPGQRVTISCTGSSSNIGRGYNVHWYQQLPGTAPKLLIYDNTNRPSGVPARFSGSKSATSASLAITGLQADDEADYYCQSYDSGLRWVFGGGTKLTLLR
As for B13, the dissociation constant Kd in test [3], in test [4] and in test [5] was 3.43 nM throughout.

B14: G27 (antibody, V domains shown)
VH: QVTLKESGGGVVQPGTSLRLSCAASGFTFSNYAMTWVRQAPGKGLEWVGLISYDGSVTHYTDSVKGRFTISRDNAKNSLYLQMNTLRADDTAVYYCARGSGYQEHWGQGTLVTVSS
VL: LPVLTQPPSVSVAPGQTARITCGGNNIGSKSVEWYQQKPGQAPVLVIYYDSDRPSGIPERFSGSNSGNTATLTISRVEAGDEADYYCQVWDSSSDHHVVFGGGTKLTVLG
Regarding B14, the Kd in test [3], in test [4] and in test [5] was 25.1 nM each time.
